Test results: PMC3978166, “A new unconventional HLA-A2-restricted epitope from HBV core protein elicits antiviral cytotoxic T lymphocytes” (Protein & Cell, 2014)

Legend:
[1] = molecular target: HLA-A*0201 molecules on T2 cells (human (endogenous in T2)); assay: flow cytometry on cells
HLA-A*0201 molecules = HLA-A*0201 molecules (Homo sapiens, UniProt P04439, D140Y/D185E/D98H/E176V/E277Q/G131W/G231S/I119V/I121R/I166T/I218V/L300P/L318F/N151K/N90K/P208A/P217A/Q86G/Q94H/R138H/R169H/T345S); assay: T2 binding assay (MHC stabilization assay with T2 cells, flow cytometry); assay type: cell-based; settings: FI = (mean FITC fluorescence with peptide − without peptide)/(without peptide), high affinity FI ≥1, representative of three independent experiments
Text: (A) The overlapping method of 8 aa overlap was used to synthesize a total of 191 nonapeptides covering HBc aa 1–150. […] (C and D) Measurement of the binding affinity of HBc141–149N- or C-terminally truncated (C) or extended (D) peptides to HLA-A*0201. HBc82-90 served as a negative control (NC). (E) In vitro refolding of HBC141–149 peptide with HLA-A*0201 heavy chain and β2m. Gel filtration chromatography was used to analyze the refolded complexes on a Superdex200 16/60 column. […] The HLA complex (peak 2) was analyzed by SDS-PAGE electrophoresis and coomassie blue staining
T2 cells were used to perform MHC stabilization assays as previously described (Zhou et al., [2006]). The binding activity of each peptide was calculated as the fluorescent index (FI), and the FI was determined by: (mean FITC fluorescence with the given peptide − mean FITC fluorescence without peptide) (mean FITC fluorescence without peptide).

peptide-specific CTLs [2] = assay: IFN-γ ELISPOT on splenocytes of immunized HLA-A2.1/Kb transgenic mice; assay type: in vivo; settings: female HLA-A2.1/Kb mice, HBc DNA prime/peptide boost with gp96 adjuvant, 1 week after last immunization; 5 × 10^5 splenocytes; mean ± SD of five mice (Fig. 3A)
Description: Figure 3 Detection of HBc141–149 peptide-specific CD8 ^+ T cell response in HLA-A2.1/Kb mice and AHB patients. Female HLA-A2.1/Kb transgenic mice were immunized with an HBV DNA prime/peptide boost regimen at weeks 1, 3, and 4. […] (B and C) 293T cells labeled with CFSE were transfected with pHBV1.3 as target cells (B), and T2 cells labeled with CFSE were loaded with 20 μg/mL peptide at 37°C for 1 h as target cells (C). […] After 4 h, the mixed samples were stained with PI, and the killing of target cells were analyzed by FACS. The data shown are the mean ± SD of five mice. (D) AHB patients (n = 29) were divided into HLA-A2-positive (n = 19) and HLA-A2-negative (n = 10) groups. PBMCs (2 × 10^5/well) from these patients were stimulated with the indicated peptides for detection of peptide-specific CTLs by ELISPOT assay. HBc82–90 peptide served as negative control for background evaluation in ELISPOT assay. PBMCs from HLA-A2- patients were used for specificity evaluation of CTLs. Paired samples t-tests were used for ELISPOT assay in AHB patients. *P < 0.05 and **P < 0.01 by t-test. Data are representative of two independent experiments […]
To detect epitope-specific T cells, enzyme-linked immunosorbent spot (ELISPOT) assay was performed according to the manufacturer’s instruction. […] The spots were counted and analyzed using an ELISPOT Reader (Cellular Technology Ltd, USA).

peptide-specific CTLs [3] = assay: Ex vivo IFN-γ ELISPOT on PBMCs from HLA-A2+ AHB patients; assay type: cell-based, human; settings: PBMCs 2 × 10^5/well from HLA-A2+ AHB patients (n = 19), 50 μg/mL peptide; mean ± SD (Fig. 3D)
Description: (D) AHB patients (n = 29) were divided into HLA-A2-positive (n = 19) and HLA-A2-negative (n = 10) groups. PBMCs (2 × 10^5/well) from these patients were stimulated with the indicated peptides for detection of peptide-specific CTLs by ELISPOT assay. […] PBMCs from HLA-A2- patients were used for specificity evaluation of CTLs. Paired samples t-tests were used for ELISPOT assay in AHB patients. *P < 0.05 and **P < 0.01 by t-test. Data are representative of two independent experiments
A total of 29 AHB patients were enrolled for blood collection, which were divided into two groups: HLA-A2-positive (n = 19) and HLA-A2-negative (n = 10). All patients were negative for HCV, HDV, and HIV-1 infection. 10 mL of blood samples were collected from each patient.
To detect epitope-specific T cells, enzyme-linked immunosorbent spot (ELISPOT) assay was performed according to the manufacturer’s instruction. Briefly, ninety-six well PVDF plates (BD-Pharmigen, San Diego, CA) were precoated overnight at 4°C with the coating Ab and blocked for 1 h at 37°C. Patient PBMCs (2 × 10^5) or murine splenocytes (10^6) were added to each well together with 50 μg/mL of peptide and incubated at 37°C for 24–48 h with phytohemagglutinin (PHA)-stimulated T cells as positive controls. Each test was performed at least in triplicate. The spots were counted and analyzed using an ELISPOT Reader (Cellular Technology Ltd, USA).

Q: HBc60–68 (V60) peptide was tested. Which FI (fluorescent index) [1] did it give?
A: Its FI (fluorescent index) is 2.64.

Q: HBc140–149 peptide was tested. Which FI (fluorescent index) [1] did it give?
A: Its FI (fluorescent index) is 0.033.

Q: With HBc141–148 peptide as the substance, how does the FI (fluorescent index) [1] read?
A: Its FI (fluorescent index) is 0.124.

Q: For HBc141–149 peptide, which FI (fluorescent index) [1] is on record?
A: Its FI (fluorescent index) is 2.41.

Q: With HBc141–150 peptide as the substance, how does the FI (fluorescent index) [1] read?
A: Its FI (fluorescent index) is 0.005.

Q: For HBc142–149 peptide, which FI (fluorescent index) [1] is on record?
A: Its FI (fluorescent index) is 0.151.

Q: How did the “FI (fluorescent index), binding to HLA-A*0201” value (from here on “FI (fluorescent index), binding”) (HLA-A*0201 molecules) turn out when “LSTLPETTVV [HBc140–149, extended decapeptide of HBc141–149, […]]” was run?
A: Its value is 0.033.

Q: Which “peptide-specific CTL response, IFN-γ ELISPOT (SFC)” value (peptide-specific CTLs [2]) does the source give for RELVVSYVN [HBc82–90] here?
A: The value was “No peptide-specific CD8^+ T cell response was detected”.

Q: What about the “peptide-specific CTL response, ex vivo IFN-γ ELISPOT” value (peptide-specific CTLs [3]) of the same substance?
A: Its value is 20.94 ± 17.57.

Q: How did the “FI (fluorescent index), binding” value (HLA-A*0201 molecules) turn out when STLPETTV [HBc141–148] was run?
A: Its value is 0.124.

Q: TLPETTVV [HBc142–149] was tested. Which “FI (fluorescent index), binding” value (HLA-A*0201 molecules) did it give?
A: Its value is 0.151.
